The source of these data is patent publication US8022177B2, “Peptides and calcium regulation in mammalian cells” (The Board of Trustees of the University of Illinois, priority 2005, dated 2011).

Test [1] deals with endogenous LVA calcium current in HL-1 cells. The test can be described thus: Whole-cell patch clamp of endogenous LVA calcium current in HL-1 cells transfected with γ subunits. It is filed as cell-based, mouse. As to the method:
HL-1 cells were a gift from Dr. William C. Claycomb and were maintained as previously reported. Briefly, HL-1 cells were grown in HL-1 medium containing Claycomb medium (JRH Biosciences) supplemented with 10% fetal bovine serum (JRH Biosciences), 0.1 mM norepinephrine (Sigma), 2 mM L-glutamine (Sigma), and 100 U/ml:100 μg/ml:250 ng/ml of penicillin/streptomycin/ amphotericin B (Life Technologies) in a humidified 5% CO2 incubator at 37° C. Cells were passed when confluent at a 1:3 dilution into flasks or plates pre-coated with a 1:80 dilution of fibronectin and 0.02% gelatin (Sigma). Cells from passages 86-108 were used for this study.
2.3. Transfection. Untransfected HEK-293 cells, HEK-293 cell lines stably transfected with Cav3.1, and HL-1 cells were transiently transfected with vectors containing γ subunit, GFP, and modified CFP cDNAs using Lipofectamine 2000 reagent (InVitrogen) as per the manufacturer's recommendations. HEK-293 cells were grown to 70-80% confluence before transfection. HL-1 cells were grown to 50-75% confluence before transfection.
2.4. Electrophysiology. Whole-cell calcium currents were recorded using an Axopatch-1 D patch clamp system and Clampex 8.0 software. Pipettes were fabricated from borosilicate glass and had typical resistances of 2-4 MΩ. […]
Recordings from HEK-293 cells were made 48-96 h posttransfection, at which time expression, as measured by GFP fluorescence, peaked. […] Current-voltage relationships for all HEK-293 and HL-1 cells were measured using 50 ms test depolarizations. Peak current amplitudes for activation curves were determined by fitting tail currents, elicited by stepping membrane voltage from varying test potentials to −60 mV, with the Boltzman equation. […] Inactivation curves were determined by fitting peak amplitudes of currents, observed in a test pulse to −20 mV, following 500 ms steps to varying potentials, with the Boltzman equation. Time to peak was determined using the current-voltage protocol described above. […]
(In general: In patch-clamp work, channel activity is measured electrically.)

The next test addresses T1, Cav3.1 (Homo sapiens, UniProt O43497).
T1 construct: expressed in transfected cells; host or cells: HEK-293, stably transfected
In words: Co-immunoprecipitation of Flag-tagged γ subunits with Cav3.1. Format: binding. As to the method:
Immunoprecipitation and Immunodetection. HEK-293 cells stably transfected with Cav3.1 were grown in T25 tissue culture flasks and transiently transfected when 70-90% confluent. Five μg of each plasmid expression vector was transfected per T25 flask using 15 μL Lipofectamine 2000 reagent (Invitrogen, Carlsbad, Calif.) as per the manufacturer's recommendations. Cells were processed for immunoprecipitation assay and immunoblot analysis 24 hr post-transfection. Cells were washed and scraped from flasks with ice cold PBS (without Ca^2+ or Mg^+) and centrifuged for 5 min at 500×g at 4° C. Cell pellets were resuspended in 1.0 mL lysis buffer (50 mM Tris HCl, 150 mM NaCl, 1 mM EDTA, 2% Triton X-100, and 1:100 Protease Inhibitor Cocktail Set III (EMD Biosciences, San Diego, Calif.)) and incubated with constant mixing for 1 hr at 4° C. Samples were cleared by centrifugation at 10,000×g for 2 min at 4° C. Equal amounts of cell lysate were added to a 75 μL bed volume of anti-FLAG M2 affinity gel (Sigma, St. Louis, Mo.) that was washed three times with lysis buffer. Samples were immunoprecipitated with constant mixing overnight at 4° C. Beads were washed three times with lysis buffer and incubated in sample buffer containing 1% SDS, 50 mM DTT, and 10% glycerol for 30 minutes at 25° C. […]

T1 sequence (O43497 whole entry): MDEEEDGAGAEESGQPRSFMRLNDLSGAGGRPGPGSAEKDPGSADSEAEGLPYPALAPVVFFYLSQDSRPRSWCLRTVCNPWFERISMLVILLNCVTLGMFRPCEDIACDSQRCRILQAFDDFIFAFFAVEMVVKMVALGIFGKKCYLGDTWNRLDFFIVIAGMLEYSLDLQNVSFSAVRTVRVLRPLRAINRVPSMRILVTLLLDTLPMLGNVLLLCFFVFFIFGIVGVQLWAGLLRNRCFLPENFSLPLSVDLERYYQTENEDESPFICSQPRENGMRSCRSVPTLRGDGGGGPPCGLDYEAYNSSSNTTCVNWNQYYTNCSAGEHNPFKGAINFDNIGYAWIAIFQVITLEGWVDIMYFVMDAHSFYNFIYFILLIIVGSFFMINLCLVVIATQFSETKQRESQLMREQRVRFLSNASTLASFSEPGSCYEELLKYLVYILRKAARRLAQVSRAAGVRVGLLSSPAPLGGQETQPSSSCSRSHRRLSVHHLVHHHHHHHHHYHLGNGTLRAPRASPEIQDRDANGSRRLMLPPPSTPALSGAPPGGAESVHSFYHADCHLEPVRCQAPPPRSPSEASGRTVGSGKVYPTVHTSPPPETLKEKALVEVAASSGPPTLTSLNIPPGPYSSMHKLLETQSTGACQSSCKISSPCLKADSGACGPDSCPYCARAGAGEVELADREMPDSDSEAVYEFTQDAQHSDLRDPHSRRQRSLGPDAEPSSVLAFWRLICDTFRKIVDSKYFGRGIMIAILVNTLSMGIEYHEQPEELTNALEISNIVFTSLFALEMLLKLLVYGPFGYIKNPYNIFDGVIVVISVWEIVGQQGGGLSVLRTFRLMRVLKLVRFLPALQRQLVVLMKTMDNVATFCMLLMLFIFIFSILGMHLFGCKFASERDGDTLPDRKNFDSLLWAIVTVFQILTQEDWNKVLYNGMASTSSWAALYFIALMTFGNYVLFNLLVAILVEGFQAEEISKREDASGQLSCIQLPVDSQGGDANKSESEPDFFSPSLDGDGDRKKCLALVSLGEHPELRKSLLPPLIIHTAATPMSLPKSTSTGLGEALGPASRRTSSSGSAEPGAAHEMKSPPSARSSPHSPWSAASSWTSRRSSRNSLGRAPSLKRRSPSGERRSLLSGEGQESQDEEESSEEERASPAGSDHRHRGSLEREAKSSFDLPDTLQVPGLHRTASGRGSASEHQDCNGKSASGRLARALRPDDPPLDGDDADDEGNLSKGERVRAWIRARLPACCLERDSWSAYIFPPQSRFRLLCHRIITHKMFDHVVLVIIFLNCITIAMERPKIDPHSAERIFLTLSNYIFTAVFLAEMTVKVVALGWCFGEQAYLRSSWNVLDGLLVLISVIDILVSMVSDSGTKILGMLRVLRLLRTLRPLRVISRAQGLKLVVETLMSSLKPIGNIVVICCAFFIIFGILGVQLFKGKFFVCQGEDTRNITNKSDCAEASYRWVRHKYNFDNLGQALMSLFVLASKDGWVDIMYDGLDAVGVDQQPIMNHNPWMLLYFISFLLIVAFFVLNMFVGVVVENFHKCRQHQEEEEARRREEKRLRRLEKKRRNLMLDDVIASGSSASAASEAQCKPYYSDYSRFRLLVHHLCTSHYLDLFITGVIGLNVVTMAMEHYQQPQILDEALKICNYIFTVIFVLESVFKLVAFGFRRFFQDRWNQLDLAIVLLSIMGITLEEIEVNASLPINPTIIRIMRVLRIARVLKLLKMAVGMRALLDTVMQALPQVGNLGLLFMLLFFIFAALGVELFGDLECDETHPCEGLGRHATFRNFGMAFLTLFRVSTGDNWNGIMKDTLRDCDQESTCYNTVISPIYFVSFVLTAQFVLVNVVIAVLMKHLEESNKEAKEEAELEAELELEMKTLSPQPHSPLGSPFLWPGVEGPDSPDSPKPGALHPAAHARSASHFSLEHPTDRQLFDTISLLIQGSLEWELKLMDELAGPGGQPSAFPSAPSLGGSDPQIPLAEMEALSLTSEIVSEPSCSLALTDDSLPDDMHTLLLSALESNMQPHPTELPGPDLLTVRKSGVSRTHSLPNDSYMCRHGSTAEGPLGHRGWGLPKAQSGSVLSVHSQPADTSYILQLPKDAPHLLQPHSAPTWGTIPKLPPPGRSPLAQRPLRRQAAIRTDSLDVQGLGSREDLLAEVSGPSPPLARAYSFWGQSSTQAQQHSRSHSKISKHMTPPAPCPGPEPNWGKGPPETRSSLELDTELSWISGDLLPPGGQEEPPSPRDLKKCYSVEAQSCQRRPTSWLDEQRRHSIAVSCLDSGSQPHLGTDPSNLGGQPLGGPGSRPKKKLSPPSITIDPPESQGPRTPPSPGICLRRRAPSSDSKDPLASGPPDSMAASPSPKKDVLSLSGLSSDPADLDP

B1: γ4: rat calcium channel γ4 subunit (AF361341), SEQ ID NO:47 (protein, listed as Rattus norvegicus)
chain: MVRCDRGLQMLLTTAGAFAAFSLMAIAIGTDYWLYSSAHICNGTNLTMDDGPPPRRARGDLTHSGLWRVCCIEGIYKGHCFRINHFPEDNDYDHDSSEYLLRIVRASSVFPILSTILLLLGGLCIGAGRIYSRKNNIVLSAGILFVAAGLSNIIGIIVYISSNTGDPSDKRDEDKKNHYNYGWSFYFGALSFIVAETVGVLAVNIYIEKNKELRFKTKREFLKASSSSPYSRMPSYRYRRRRSRSSSRSTEASPSRDASPVGLKITGAIPMGELSMYTLSREPLKVTTAASYSPDQDAGFLQMHDFFQQDLKEGFHVSMLNRRTTPV
B1: in test [1], the LVA current density amounted to 9.14±1.34 pA/pF. Also, in the test with Cav3.1 (Cav3.1 in anti-Flag immunoprecipitates, FIG. 36B), the “Interaction with Cav3.1 relative to γ6” value is listed as “approximately 10 % of γ6”.

B2: γ6L: rat calcium channel γ6 subunit, long isoform (AF361343), SEQ ID NO:48 (protein, listed as Rattus norvegicus)
chain: MMWSNFFMQEEDRRRTAVGRRRAQEQQNLGLTPEREGKIKLGLLVAIVGATLAVLAVGTEFWVELNTYKTNGSAVCEAAHLGLWKVCIKRLWQADVPAGRETCGPAELPGEANCTYFKFFTTGENAHIFQRTTKKEVNLAAAVIAVLGLTAMALGCLCVIMVLSKGAEFLLRLGAVCFGLSGLLLFVSLEVFRHSVRALLQGVNPETPPAPRLAYEYSWSLGCGVGAGLILLLGGVCFLLLTLPSWPWRSLCPKRGGPTA
For the molecule B2, in test [1], the LVA current density came to 3.37±0.62 pA/pF. Besides, the “Reduction of endogenous LVA current density from control” value in test [1] (transient expression) was 63%. Besides, the “Co-immunoprecipitation with Cav3.1” value in the test with Cav3.1 (FIG. 36A) is given as “robust coimmunoprecipittion”.
